According to publication PMC5096451:

Molecular target: RhoA (UniProt P61586)
Sequence (P61586 whole entry): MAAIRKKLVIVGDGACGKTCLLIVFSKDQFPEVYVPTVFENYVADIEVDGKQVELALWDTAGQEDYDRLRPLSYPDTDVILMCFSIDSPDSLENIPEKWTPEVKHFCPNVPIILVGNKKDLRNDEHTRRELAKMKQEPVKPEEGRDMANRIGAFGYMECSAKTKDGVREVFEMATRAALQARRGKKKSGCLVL

SseJ, sequence (Q9FD10 whole entry): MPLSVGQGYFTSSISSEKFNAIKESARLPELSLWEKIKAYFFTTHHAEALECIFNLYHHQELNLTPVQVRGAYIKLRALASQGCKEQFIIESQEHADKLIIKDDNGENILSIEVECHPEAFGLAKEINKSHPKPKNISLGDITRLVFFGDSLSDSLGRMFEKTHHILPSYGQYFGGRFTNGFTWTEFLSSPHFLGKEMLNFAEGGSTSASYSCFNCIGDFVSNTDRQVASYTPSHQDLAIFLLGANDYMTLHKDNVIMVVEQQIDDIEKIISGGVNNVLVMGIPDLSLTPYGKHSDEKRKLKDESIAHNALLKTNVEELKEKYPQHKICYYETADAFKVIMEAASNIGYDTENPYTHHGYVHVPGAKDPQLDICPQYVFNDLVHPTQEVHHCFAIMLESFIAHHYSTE

## SseJ (from UniProt Q9FD10 1-408) (enzyme)
  SseJ lipase stimulation (PNPP), 200 nM SseJ and 200 nM RhoA-GDP: 0.21 mAU/min
  SseJ lipase stimulation (PNPP), 200 nM SseJ and 200 nM RhoA-GTPγS: 1.2 mAU/min
